Experimental data: patent publication US20220170028A1, “NOVEL INTERLEUKIN-2 VARIANTS AND BIFUNCTIONAL FUSION MOLECULES THEREOF” (Cugene Inc, priority 2019, published 2022)
Entries after “also recorded” stand apart in the source; their conditions may differ.

How the values were obtained:
[1] = Transient expression level of IL-2 Fc fusion constructs in HEK-293F cells; details: for expression level (titer): transiently in HEK-293F cells, Example 4
Experimental: The constructs were produced by co-transfecting HEK293-F cells growing in suspension with the mammalian expression vectors using polyethylenimine (PEI, 25,000 MW linear, Polysciences). If there were two or more expression vectors, the vectors were transfected in a 1:1 ratio. For transfection, HEK293 cells were cultivated in serum free FreeStyle™ 293 Expression Medium (ThermoFisher). For production in 1000 ml shaking flasks (working volume 330 mL), HEK293 cells were seeded at a density of 0.8×10^6 cells/ml 24 hours before transfection. A total of 330 μg of DNA expression vectors were mixed with 16.7 ml Opti-mem Medium (ThermoFisher). After addition of 0.33 mg PEI diluted in 16.7 ml Opti-mem Medium, the mixture was vortexed for 15 sec and subsequently incubated for 10 min at room temperature. The DNA/PEI solution was then added to the cells and incubated at 37° C. in an incubator with 8% CO2. Sodium butyrate (Millipore Sigma) was added to the cells at day 4 at a final concentration of […] to help sustain protein expression. After 6 days cultivation, supernatant was collected for purification by centrifugation for 20 min at 2200 rpm. The solution was sterile filtered (0.22 μm filter, Corning). The secreted protein was purified from cell culture supernatants using Protein A affinity chromatography.
(§1) S125I substitution was thus introduced into a number of IL-2 variant Fc fusion molecules. The constructs harboring Ile-125 substitution in IL-2 were expressed using the same vector and in the same culturing conditions as their Ser-125 counterparts and purified using MabSelectSure. The expression level in mg/L and purity assessed by SEC chromatography in aggregation % of exemplary molecules are summarized in Table 6. The two molecules in the same row of Table 6 share the same other amino acid substitution(s) and differ only at residue 125 with either serine or isoleucine. As an example, the SEC chromatogram and SDS-PAGE pictures of P-0447 (SEQ ID NO: 173) and its Ile-125 counterpart P-0511 (SEQ ID NO: 213) were further illustrated in FIGS. 1D and 1E.

[2] = Aggregate content by size-exclusion chromatography after Protein A purification; format: physicochemical; details: for Aggregation % (SEC): after MabSelectSure; for aggregates / high-molecular weight species (SEC): Example 4
Experimental: For affinity chromatography each supernatant was loaded on a HiTrap MabSelectSure column (CV=5 mL, GE Healthcare) equilibrated with 25 ml phosphate buffered saline, pH 7.2 (ThermoFisher). Unbound protein was removed by washing with 5 column volumes PBS, pH 7.2 and target protein was eluted with 25 mM sodium citrate, 25 mM sodium chloride, pH 3.2. Protein solution was neutralized by adding 3% of 1 M Tris pH 10.2. Ion exchange chromatography or mix-mode chromatography, including but not limited to CaptoMMC (GE Healthcare), ceramic hydroxyapatite, or ceramic fluoroapatite (Bio-Rad) was also utilized to polish the Protein A material as needed. Target protein was concentrated with an Amicon®Ultra-15 concentrator 10 KDa NMWC (Merck Millipore Ltd.)
The purity and molecular weight of the purified constructs were analyzed by SDS-PAGE with and in the absence of a reducing agent and staining with Coomassie (Imperial® Stain). The NuPAGE® Pre-Cast gel system (4-12% or 8-16% Bis-Tris, ThermoFisher) was used according to the manufacturer's instructions. The protein concentration of purified protein samples was determined by measuring the UV absorbance at 280 nm (Nanodrop Spectrophotometer, ThermoFisher) divided by the molar extinction coefficient calculated on the basis of the amino acid sequence. The aggregate content of the constructs was analyzed on an Agilent 1200 high-performance liquid chromatography (HPLC) system. Samples were injected onto an AdvanceBio size-exclusion column (300 Å, 4.6×150 mm, 2.7 μm, LC column, Agilent) using 150 mM sodium phosphate, pH 7.0 as the mobile phase at 25° C.
as §1

[3] = tested on: CD4+ Treg vs CD4+ Tconv cells; test: STAT5 phosphorylation, selectivity / activity profile Treg versus CD4+ Tconv cells, human PBMC; format: cell-based
Description: (§2) Single amino acid substitutions were introduced to IL-2 at positions corresponding to amino acids interacting with receptor subunit(s) β or γ or βγ. These substitutions were aimed to reduce IL-2 signaling capacity through the intermediate affinity IL-2Rβγ complex and confer signaling specificity from the high affinity IL-2Rαβγ. IL-2 variants containing single amino acid substitutions were examined for their ability to differentially stimulate STAT5 phosphorylation in CD4 positive Treg and Tconv cells. STAT5 is known to be involved in the downstream signaling cascade upon IL-2 binding to the transmembrane IL-2 receptors. The phosphorylation of STAT5 in defined lymphocyte subpopulations was measured using fresh human peripheral blood mononuclear cells (PBMC) and the forkhead transcription factor FOXP3 was used to identify the Treg population in FACS analysis.
(§3) Briefly, human PBMC were isolated by Ficoll-Hypaque centrifugation from the buffy coat of a healthy donor. PBMC were starved in serum-free MACS buffer at 4° C. for 1 hour. 2×10^5 PBMC were then treated with serial dilutions of test compounds for 30 min at 37° C. Cells were fixed and permeabilized with Foxp3/Transcription Factor Staining Buffer Set (EBIO) by incubating with 1× Foxp3 fixation/permeabilization working solution for 30 minutes and washing with 1× permeabilization buffer. Cells were additionally fixed with Cytofix buffer and permeabilized with Perm Buffer III (BD Biosciences) and then washed. After blocking Fc receptors by adding human TruStain FcX (1:50 dilution), cells were stained with a mixture of anti-CD25-PE, anti-FOXP3-APC, anti-pSTAT5-FITC, and anti-CD4-PerCP-Cy5.5 antibodies at concentrations recommended by the manufacturer for 45 minutes at room temperature. Cells were collected by centrifugation, washed, resuspended in FACS buffer, and analyzed by flow cytometry. The flow cytometry data was gated into CD4+/Foxp3+/CD25^high and CD4+/Foxp3−/CD25^low groups for the Treg and CD4 conventional T cell subsets, respectively. Data are expressed as a percent of pStat5 positive cells in gated population.
The S125I substitution was then introduced into wild-type IL-2 or IL-2 variants that already harbored 1 or 2 mutations targeting receptor subunit(s) β or γ or βγ. The resulting IL-2 variants containing isoleucine at position 125 were tested for their ability to stimulate STAT5 phosphorylation in Treg and Tconv cells in comparison with their respective serine counterparts at position 125. Table 7 lists the potency and selectivity of IL-2 variants in Treg cells. The two molecules in the same row of Table 7 share the same other amino acid substitution(s) and differ only at position 125 with either serine or isoleucine.

[4] = tested on: STAT5 phosphorylation in CD4+ Treg cells; test: STAT5 phosphorylation in CD4+ Treg cells, human PBMC assay by FACS; format: cell-based
Description: as §2, §3

[5] = tested on: STAT5 phosphorylation in CD4+ Tconv cells; test: STAT5 phosphorylation in CD4+ Tconv cells, human PBMC assay by FACS; format: cell-based
Description: as §2, §3

Row | Substance | Expression ([1]; Isoleucine-125 constructs) | Aggregation % (SEC) ([2]; Isoleucine-125 constructs) | Treg Selectivity ([3]; Isoleucine-125 constructs) | Expression ([1]; Serine-125 constructs) | expression level (titer) [1] | Aggregation % (SEC) ([2]; Serine-125 constructs) | potency in Treg cells relative to CD4+ Tconv cells [3] | Treg Selectivity ([3]; Serine-125 constructs) | STAT5 phosphorylation activity in Treg cells (in words) [4] | STAT5 phosphorylation activity in CD4+ Tconv cells (in words) [5] | activity profile / selectivity window Treg over CD4+ Tconv (in words) [3] | aggregates / high-molecular weight species (SEC) [2]
1 | P-0493: IL-2 D20E/S125I Fc fusion, SEQ ID NO: 192 | 7.9 mg/L | 1.7% | Yes | – | – | – | – | – | – | – | – | –
2 | P-0492: IL-2 L19D/S125I Fc fusion, SEQ ID NO: 191 | 13.6 mg/L | 0% | Yes | – | – | – | – | – | – | – | – | –
3 | P-0250: wild type IL-2 Fc fusion protein, C-terminal fusion, SEQ ID NO: 71 [reference compound] | – | – | – | 3.1 mg/L | around 3 mg/L | 25.7% | about 250 fold | Yes | – | – | – | –
4 | P-0363: IL-2 D20T Fc fusion, SEQ ID NO: 74 | – | – | – | 1.4 mg/L | – | 29.4% | – | – | ability to induce STAT5 phosphorylation | largely diminished or abolished | some or significant biased selective window | –
5 | P-0424: IL-2 L19H Fc fusion, SEQ ID NO: 153 | – | – | – | 7.7 mg/L | – | 21.4% | – | Yes | – | reduced | selective activation of Treg cells over CD4+ Tconv cells | –
6 | P-0495: IL-2 L19Y/S125I/Q126E Fc fusion, SEQ ID NO: 194 | 23.5 mg/L | 0.8% | Yes | – | – | – | – | – | – | – | – | –
7 | P-0471: IL-2 L19Y/S125I Fc fusion, SEQ ID NO: 183 | 19.3 mg/L | 1.0% | Yes | – | 19.3 mg/L | – | – | – | retained comparable potency | varied significantly | – | 1%
8 | P-0372: IL-2 L19Y Fc fusion, SEQ ID NO: 81 | – | – | – | 4.0 mg/L | 4.0 mg/L | 21.7% | – | Yes | minimally impacted the pSTAT5 activation potency | largely retained the biological activity | modestly improved selective window | 21.7%
9 | P-0364: IL-2 D20E Fc fusion, SEQ ID NO: 75 | – | – | – | 0.7 mg/L | – | 21.1% | – | Yes | ability to induce STAT5 phosphorylation | largely diminished or abolished | – | –
10 | P-0447: IL-2 L19H/Q126E Fc fusion, SEQ ID NO: 173 | – | – | – | 7.3 mg/L | – | 23.7% | – | Yes | robust biological activity; also recorded: significant potency | nearly completely abolished; also recorded: largely abolished | on par with Benchmark-2 | –
11 | P-0318: IL-2 D20I/N88I Fc fusion, SEQ ID NO: 97 | – | – | – | – | similarly low level | – | – | – | – | – | – | 65%
12 | P-0494: IL-2 D20T/S125I Fc fusion, SEQ ID NO: 193 | 11.7 mg/L | 0.5% | – | – | – | – | – | – | – | – | – | –
13 | P-0419: IL-2 L19Y/Q126E Fc fusion, SEQ ID NO: 105 | – | – | – | 6.7 mg/L | – | 33.8% | – | Yes | mainly reserved; also recorded: retained comparable potency; also recorded: significant potency | varied significantly; also recorded: largely abolished | significantly widened; also recorded: very comparable to that of the Benchmark-1 molecule; also recorded: comparable activity profile to Benchmark-1 | –
14 | P-0317: IL-2 D20I/N88R Fc fusion, SEQ ID NO: 96 | – | – | – | – | similarly low level | – | – | – | – | – | – | 7.5%
15 | P-0425: IL-2 L19D Fc fusion, SEQ ID NO: 154 | – | – | – | 2.6 mg/L | – | 32.6% | – | Yes | slightly reduced potency | significantly impaired | wide window for selective targeting of Treg subset | –
16 | P-0491: IL-2 L19H/S125I Fc fusion, SEQ ID NO: 190 | 36.7 mg/L | 0.6% | Yes | – | – | – | – | – | slightly increased potency | – | without altering Treg selectivity | –
